Residue numbers refer to the chain shown, from its start.

The results in this text go back to patent US20190233540A1 (JUNSHI BIOSCIENCES, published 2019).

The target in assay [1] is T1, human PCSK9 D347Y recombinant protein (human, UniProt Q8NBP7 31-692, biotin label (sites not given) in Examples 3 and 9). Description: cell-based or functional assay.
Assay [2] deals with T2, human PCSK9 recombinant protein (human PCSK9 extracellular region protein) (human, UniProt Q8NBP7 31-692, biotin label (biotin-xx-NHS, sites not stated) in the ELISA and flow cytometry assays).
T2 construct: extracellular domain; The tag from the vector pSec CAGA2 ECD is not described; PCSK9 is a secreted protein; also called hPCSK9; HPCSK9
T2 sequence (Q8NBP7 31-692 limits assumed): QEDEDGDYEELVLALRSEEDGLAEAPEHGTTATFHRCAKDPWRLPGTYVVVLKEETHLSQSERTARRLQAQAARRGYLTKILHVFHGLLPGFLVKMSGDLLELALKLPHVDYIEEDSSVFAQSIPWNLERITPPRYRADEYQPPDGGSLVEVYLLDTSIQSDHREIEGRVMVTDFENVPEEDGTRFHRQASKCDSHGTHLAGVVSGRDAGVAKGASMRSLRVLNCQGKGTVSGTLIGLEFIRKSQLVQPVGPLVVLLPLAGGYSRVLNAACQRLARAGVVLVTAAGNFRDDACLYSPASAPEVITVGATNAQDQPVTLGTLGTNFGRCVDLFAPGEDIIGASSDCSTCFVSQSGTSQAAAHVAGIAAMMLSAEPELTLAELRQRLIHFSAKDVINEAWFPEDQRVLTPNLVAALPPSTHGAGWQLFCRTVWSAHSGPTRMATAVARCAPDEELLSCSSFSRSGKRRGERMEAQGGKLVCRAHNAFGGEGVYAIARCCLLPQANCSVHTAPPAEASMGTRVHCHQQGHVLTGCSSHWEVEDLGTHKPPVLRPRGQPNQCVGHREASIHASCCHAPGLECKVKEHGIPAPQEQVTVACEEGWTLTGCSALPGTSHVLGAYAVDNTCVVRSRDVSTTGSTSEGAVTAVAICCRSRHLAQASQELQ
The assay can be described thus: ELISA, biotin-labeled PCSK9 at 0.2 ug/ml captured on streptavidin, antibody titrated; unit taken from the axis LOG (pg/mL).

Assay [3] concerns the target T1, human PCSK9 D347Y recombinant protein. Description: cell-based or functional assay. The source holds these as a separate data set.
In assay [4] the target is T2, human PCSK9 recombinant protein (human …). Description: ForteBio instrument (BLI). A general note: Biolayer interferometry detects binding as a change in optical thickness at a sensor tip.
Assay [5] shares this target. The assay can be described thus: ELISA, biotin-labeled PCSK9 at 2 ug/ml captured on streptavidin, antibody titrated; unit taken from the axis log(pg/ml).
In assay [6] the target is T1, human PCSK9 D347Y recombinant protein. Description: ELISA, biotin-labeled PCSK9 (D347Y by the legend) at 2 ug/ml captured on streptavidin, antibody titrated; unit taken from the axis log(ng/ml). A general note: ELISA stands for enzyme-linked immunosorbent assay.
Assay [7] has the same target. The assay can be described thus: ELISA, antibody coated at 1 ug/ml, biotin-labeled PCSK9 (D347Y by the legend) titrated, HRP-streptavidin; the concentration is that of PCSK9; unit taken from the axis log(pg/ml).
Assay [8] has the same target. Description: competition ELISA, biotin-labeled PCSK9 (D347Y by the legend) captured on streptavidin, antibody titrated in 200 ng/ml reference antibody, bound reference antibody detected with anti-human IgG-Fc; competitor: reference antibody; unit taken from the axis log(ng/ml).
Assay [9] concerns the target murine-derived PCSK9 (murine, UniProt Q80W65 35-694, limits assumed). The assay can be described thus: ELISA, species cross-reactivity.
Assay [10] deals with T1, human PCSK9 D347Y recombinant protein. The assay can be described thus: competition ELISA, biotin-labeled PCSK9 (D347Y by the legend) captured on streptavidin, antibody titrated in 200 ng/ml reference antibody, bound reference antibody detected with anti-human IgG-Fc; competitor: reference antibody; unit taken from the axis log(ng/ml); the curve is nearly flat (OD450 about 1.2 to 1.1), ambiguous fit.

T1 sequence (Q8NBP7 31-692 D374Y): as the sequence (Q8NBP7 31-692 limits assumed) above, with D344Y counted along it
Sequence of murine-derived PCSK9 (Q80W65 35-694 limits assumed): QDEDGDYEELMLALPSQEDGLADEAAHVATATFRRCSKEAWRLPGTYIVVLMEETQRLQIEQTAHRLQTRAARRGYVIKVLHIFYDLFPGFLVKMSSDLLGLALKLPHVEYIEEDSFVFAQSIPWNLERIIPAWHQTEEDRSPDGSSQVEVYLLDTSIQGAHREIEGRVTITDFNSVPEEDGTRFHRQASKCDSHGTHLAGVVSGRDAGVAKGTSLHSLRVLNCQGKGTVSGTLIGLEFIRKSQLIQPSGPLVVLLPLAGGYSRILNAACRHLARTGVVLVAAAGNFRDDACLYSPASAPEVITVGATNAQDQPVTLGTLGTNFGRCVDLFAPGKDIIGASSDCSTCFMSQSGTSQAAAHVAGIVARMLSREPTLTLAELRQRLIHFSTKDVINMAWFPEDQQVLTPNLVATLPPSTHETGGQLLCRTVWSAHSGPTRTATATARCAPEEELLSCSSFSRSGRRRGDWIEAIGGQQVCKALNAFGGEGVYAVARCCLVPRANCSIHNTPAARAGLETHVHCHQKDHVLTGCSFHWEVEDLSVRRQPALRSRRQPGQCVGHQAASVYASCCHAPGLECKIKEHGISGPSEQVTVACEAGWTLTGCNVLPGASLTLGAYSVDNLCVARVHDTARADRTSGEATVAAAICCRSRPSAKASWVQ

B1: humanized anti-PCSK9 antibody clone 32 (antibody, V domains shown)
VH: QVQLQESGPGLVKPSQTLSLTCTVSGFSISSYGIHWIRQSPGKGLEWIGVIWRGGITDYNAPFMSRVTISKDNSKNQVSFKLSSVTAADTAVYYCANHRDWGQGTLVTVSS
VL: DIQMTQSPSSLSASVGDRVTITCQASQDINKYIDWYQHKPGKAPKLLIHYASTLQPGVPSRFSGSGSGRDYTFTISSLQPEDIATYYCLQYDDLWTFGQGTKVEIK
notes: also called humanized antibody
By EC50 is commonly meant the concentration giving half of the maximal effect. Consider B1, for which the “IC50, LDL uptake of HepG2 cells (Dil-LDL fluorescence)” value in assay [1] was about 1 µg/mL. Besides, the EC50 in assay [2] was 0.00516 µg/mL.

B2: humanized anti-PCSK9 antibody clone 77 (antibody, V domains shown)
VH: B1 VH with I34V, I56S, P62A
VL: B1 VL
notes: It shares its light chain with clone 32; also called humanized antibody
For the molecule B2, the “IC50, LDL uptake of HepG2 cells (Dil-LDL fluorescence)” value in [1] was about 1 µg/mL. Further, in [2], the EC50 amounted to 0.00481 µg/mL.

B3: 3G12 murine-derived anti-PCSK9 monoclonal antibody (antibody, V domains shown)
VH: QVQLKQSGPSLLQPSQSLSITCTVSGFSLTSYGIHWVRQSPGKGLEWLGVIWRGGITDYNAPFMSRLNITKDNSKNQVFFKMNSLQVDDTAIYYCANHRDWGQGTLVTVSA
VL: DIQMTQSPSSLSASLGGKVTITCKASQDINKYIDWYQHKPGKSPRLLIHYASTLQPGIPSRFSGSGSGRDYSFSISNLEPEDIATYYCLQYDDLWTFGGGTKLEIK
notes: Mouse hybridoma antibody
As a reminder, the Kd is the equilibrium constant for the complex coming apart. Broadly, the IC50 is the concentration that gives 50% inhibition. With B3, in assay [1], the “IC50, LDL uptake of HepG2 cells” value was about 1 µg/mL. For the same molecule, in assay [3], the “IC50(nM), LDL uptake of HepG2 cells (FL-LDL fluorescence)” value worked out at 5.5 nM. Moreover, the Kd in assay [4] worked out at 0.28 nM. The concentration giving a half-maximal response (EC50) in assay [5] was found to be 0.078 µg/mL; in assay [6] it was 0.223 µg/mL; in assay [7], 0.0835 µg/mL. In assay [8], the IC50 came to 0.0766 µg/mL.

B4: 3G12 chimeric antibody (antibody, V domains shown)
VH: B3 VH
VL: B3 VL
Consider B4, for which the EC50 in assay [5] amounted to 0.0338 µg/mL.

B5: 1A5 murine-derived anti-PCSK9 monoclonal antibody (antibody, V domains shown)
VH: B3 VH with L12V, I34V, I56S, P62A, N68S, N76S, V87A
VL: B3 VL with G17D, S43G, A51T, L89V
notes: Mouse hybridoma antibody
In the case of B5, the “IC50, LDL uptake of HepG2 cells” value in [1] is about 1 µg/mL. The equilibrium dissociation constant (Kd) in [4] was 0.91 nM. The EC50 in [6] amounted to 0.251 µg/mL; in [7] it was 0.752 µg/mL. Besides, the IC50 in [8] worked out at 0.808 µg/mL.

B6: 1B11 murine-derived anti-PCSK9 monoclonal antibody (antibody, V domains shown)
VH: QVQLQQSGAVLVRPGTSIKVSCKASGYAFTNYLIEWIKKRPGQGLEWIGMINPGSGDTNFNEKFKAKATLTADKSSTTAYMQLNSLTFDDSAVYFCARSSQLGLPYWGQGTLVTVSA
VL: DIQMTQSPASLSASVGETVTITCRASENIYSYLAWYQQKQENSPQLLVYNAYTLADGVPSRFSGSGSGTQFSLKIISLQPEDFGNYYCQHHYRTPPTFGGGTKLEIK
notes: Mouse hybridoma antibody
As for B6, the “IC50, LDL uptake of HepG2 cells” value in assay [1] is about 1 µg/mL. For the same molecule, the Kd in [4] is 4.7 nM. Moreover, the binding result in assay [9] is reported as “no binding”. Also, the EC50 in assay [7] amounted to 0.143 µg/mL. Also, in assay [10], the half-maximal inhibitory concentration (IC50) is about 0.227 µg/mL.

B7: 2B12 murine-derived anti-PCSK9 monoclonal antibody (antibody, V domains shown)
VH: DVQLQESGPGLVKPSQSLSLTCSVTGFSITSDYAWNWIRQFPGNKLEWMGYISYSGTTNYNPSLKSRISITRDTSKNQFFLHLNSVITEDTATYYCARREGHYSWFPYWGQGTLVTVSA
VL: DIVLTQSPASLAVSLGQRATISCRASESVEYYGTSLMHWYQHKPGQTPKLLIYSGSNVESGVPARFSGSGSGTDFSLNIHPVEEDDIAMYFCQQSREVPSTFGGGTKLEIK
notes: Mouse hybridoma antibody
In the case of B7, in assay [1], the “IC50, LDL uptake of HepG2 cells” value is about 1 µg/mL. For the same molecule, the Kd in assay [4] was 0.49 nM. Further, the figures for the EC50 in assay [6] and in assay [7] were 0.023 µg/mL and 0.0389 µg/mL, respectively.

B8: 1B5 murine-derived anti-PCSK9 monoclonal antibody (antibody, V domains shown)
VH: DVQLQESGPGLVKPSQSLSLTCTVTGYSITSDYAWNWIRQFPGNKVEWMGYISYSGSSSYNPSLKGRISITRDTSKNQFFLQLNSVTTEDTATYYCARFYYRFDAYFDSWGQGTTLTVSS
VL: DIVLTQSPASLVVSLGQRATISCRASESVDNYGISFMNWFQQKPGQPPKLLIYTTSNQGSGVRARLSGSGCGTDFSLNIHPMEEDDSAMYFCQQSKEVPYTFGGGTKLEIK
notes: Mouse hybridoma antibody
In the case of B8, the “IC50, LDL uptake of HepG2 cells” value in assay [1] is about 1 µg/mL. Besides, the dissociation constant (Kd) in [4] is 0.9 nM. Further, the EC50 amounted to 0.318 µg/mL in [6] and 0.666 µg/mL in assay [7]. In [8], the IC50 is 0.675 µg/mL.
